This note sets out measurements from PMC12738837, “Structure of Trypanosoma peroxisomal import complex unveils conformational heterogeneity” (Nature Communications, 2025).

Assay [1] concerns the target Pex5eTPR(N353E) mixed beforehand with the PTS1 peptide of MDH (Trypanosoma cruzi) (UniProt Q4DPQ9). The assay can be described thus: ITC; Pex14NTD in the syringe injected into Pex5eTPR + PTS1 peptide in the cell; 20 mM sodium phosphate, 100 mM NaCl, pH 6.5, 25 °C; independent model.
Assay [2] has as its target Pex5eTPR(Y358A) mixed beforehand with the PTS1 peptide of MDH (Trypanosoma cruzi) (UniProt Q4DPQ9). The assay is described as above.
Assay [3] addresses Pex5eTPR (wild type) mixed beforehand with the PTS1 peptide of MDH (Trypanosoma cruzi) (UniProt Q4DPQ9). The assay is described as above.
The target in assay [4] is Pex5eTPR (truncated Pex5, extended TPR domain with one Wxxx(F/Y) motif; residues 314-666), Trypanosoma cruzi (Trypanosoma cruzi) (UniProt Q4DPQ9). The experiment in a line: ITC; Pex14NTD (175 uM, syringe) injected into Pex5eTPR in the cell, in the absence of PTS1 peptide; 20 mM sodium phosphate, 100 mM NaCl, pH 6.5, 25 °C. A general note: ITC needs no label: the signal is the heat of the interaction.

The target in assay [5] is Pex5eTPR(Y358A) (Trypanosoma cruzi) (UniProt Q4DPQ9). Described as above.
Assay [6] deals with Pex5eTPR(N353E) (Trypanosoma cruzi) (UniProt Q4DPQ9). The description is as above.
The target in assay [7] is Pex5eTPR(GSGS) (Trypanosoma cruzi) (UniProt Q4DPQ9). Described as above.
Assay [8] has as its target Pex5_(eTPR)(Y358A) + PTS1 peptide (Trypanosoma cruzi) (UniProt Q4DPQ9). The assay can be described thus: ITC; Pex14NTD (175 μM) injected into Pex5_(eTPR) + PTS1 (20 μM + 50 μM peptide) in the cell; 20 mM sodium phosphate, 100 mM NaCl, pH 6.5; 25 °C.
Assay [9] deals with Pex5_(eTPR) + PTS1 (complex of Pex5_(eTPR) with the PTS1 peptide, prepared before ITC) (Trypanosoma cruzi) (UniProt Q4DPQ9). The description is as above.
Assay [10] deals with Pex5_(eTPR)(N353E) + PTS1 peptide (Trypanosoma cruzi) (UniProt Q4DPQ9). The assay is described as above.
For assay [11], the target named is Pex5_(eTPR) with a GSGS-spacer between the Pex5 TPR domain and Wxxx(F/Y) motif + PTS1 peptide (Trypanosoma cruzi) (UniProt Q4DPQ9). The description is as above.
Assay [12] has as its target MDH(GSGS) linker variant (Trypanosoma cruzi). The assay can be described thus: ITC; Pex5_(eTPR) (250 μM) injected into MDH (25 μM) in the cell; 100 mM Hepes, 150 mM NaCl, 2 mM β-mercaptoethanol, pH 7.5; 25 °C.
For assay [13], the target named is MDH(Δ62–70) (Trypanosoma cruzi). The assay is described as above.
Assay [14] concerns the target 6-FAM labeled PTS1 peptide. The experiment in a line: fluorescence polarisation. A general note: Polarisation of emitted light reports the rotation of a fluorescent probe.
Assay [15] deals with glycosomal malate dehydrogenase (MDH, residues 1–323) (Trypanosoma cruzi) (UniProt Q4DRD8). The assay can be described thus: ITC; Pex5_(eTPR) (250 μM) injected into MDH (25 μM) in the cell; 100 mM Hepes, 150 mM NaCl, 2 mM β-mercaptoethanol, pH 7.5; 25 °C.
Assay [16] concerns the target PTS1 peptide derived from MDH (NH2-ARSKL-COOH) (Trypanosoma cruzi). The experiment in a line: ITC; Pex5_(eTPR) with the PTS1 peptide (NH2-ARSKL-COOH); who was in the cell is not stated for the peptide; 25 °C.
Assay [17] addresses MDH(GSGS), glycosomal malate dehydrogenase with a GSGS linker between MDH and its PTS1 (Trypanosoma cruzi). The experiment in a line: ITC; Pex5eTPR in the syringe injected into MDH in the cell; 100 mM Hepes, 150 mM NaCl, 2 mM beta-mercaptoethanol, pH 7.5, 25 °C; independent model; single titrations (replicates), each fitted by itself.
Assay [18] has as its target glycosomal malate dehydrogenase (MDH), wild type (Trypanosoma cruzi). The assay is described as above.
The target in assay [19] is T1, glycosomal malate dehydrogenase (MDH, residues 1–323) (Trypanosoma cruzi), Q4DRD8.
T1 chain: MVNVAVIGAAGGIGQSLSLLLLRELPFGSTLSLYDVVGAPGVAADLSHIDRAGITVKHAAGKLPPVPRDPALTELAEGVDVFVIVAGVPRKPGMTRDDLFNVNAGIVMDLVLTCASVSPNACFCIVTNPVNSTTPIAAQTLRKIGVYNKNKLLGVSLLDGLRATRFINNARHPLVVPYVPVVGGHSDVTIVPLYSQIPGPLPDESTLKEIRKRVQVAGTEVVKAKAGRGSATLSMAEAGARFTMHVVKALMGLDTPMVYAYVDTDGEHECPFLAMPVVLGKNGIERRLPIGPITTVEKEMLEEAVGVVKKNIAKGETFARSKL
The assay can be described thus: ITC; Pex5_(eTPR) (250 μM) injected into MDH (25 μM) in the cell; 100 mM Hepes, 150 mM NaCl, 2 mM β-mercaptoethanol, pH 7.5; 25 °C.

For assay [20], the target named is 6-FAM labeled PTS1 peptide. The experiment in a line: fluorescence polarisation. This is another data set of the same source.
In assay [21] the target is T2, PTS1 peptide derived from MDH (NH2-ARSKL-COOH) (Trypanosoma cruzi).
T2 chain: ARSKL
The assay can be described thus: ITC; Pex5_(eTPR) with the PTS1 peptide (NH2-ARSKL-COOH); who was in the cell is not stated for the peptide; 25 °C.

Assay [22] has as its target T3, glycosomal malate dehydrogenase (MDH, residues 1–323) (Trypanosoma cruzi, UniProt Q4DRD8 1-323).
T3 construct: glycosomal malate dehydrogenase (MDH), Trypanosoma cruzi, residues 1-323, UniProt Q4DRD8; Tetramer (two dimers related by D2 symmetry) by cryo-EM; also called cargo; MDH tetramer; source: E. coli BL21 (DE3), purified (Ni-NTA, SEC)
T3 sequence (looked up): T1 chain
The experiment in a line: ITC; Pex5_(eTPR) (250 μM) injected into MDH (25 μM) in the cell; 100 mM Hepes, 150 mM NaCl, 2 mM β-mercaptoethanol, pH 7.5; 25 °C. To be noted: both partners purified.

Positions count from the first letter of the chain named. Names may count otherwise. “And” between values parts separate entries of the source, which are not always exact repeats. Equal entries are not always repeated. Where two headings read alike, the source gives them in different places.

With “N-terminal domain of Pex14 (Pex14NTD), wild type (domain or fragment)”, the Ka in [1] worked out at 2.24e+07 M⁻¹; in assay [2], 1.24e+07 M⁻¹; in assay [3], 1.9e+07 M⁻¹.

Consider “N-terminal domain of Pex14 (Pex14NTD; residues 21-85), Trypanosoma cruzi (domain or fragment)”, for which the stoichiometry N – broadly, a count of units in the complex or per binding partner – was found to be 0.657 in [4], 0.762 in assay [5], 0.738 in [6] and 0.568 in assay [7]. The results for the Kd in [5], in assay [6] and in assay [7] were 119 nM, 48 nM and 122 nM, respectively.

“N-terminal domain of Pex14 (Pex14NTD; residues 21–85) (domain or fragment)”: the equilibrium dissociation constant (Kd) (as a rule, the concentration at which binding is half-saturated) in assay [8] came out at 81 nM; in assay [9], 53 nM; in assay [10], 45 nM; in [11], 178 nM. In addition, the dH was -13.7 kcal/mol in [8], -15.4 kcal/mol in assay [9], -13.8 kcal/mol in [10] and -12.6 kcal/mol in assay [11]. Besides, the stoichiometry N in [8] was determined as 0.88; in assay [9], 0.671; in assay [10], 0.659; in assay [11], 0.7.

In assay [12], “Pex5_(eTPR) (residues 314–666), truncated Pex5 containing an extended TPR domain with a single Wxxx(F/Y) motif (from UniProt Q4DPQ9 316-668) (domain or fragment)” returned a Kd of 148 nM, a dH of -5.74 kcal/mol and a stoichiometry N of 0.543. In addition, in [13], the equilibrium dissociation constant (Kd) was found to be 1000 nM, the dH is -6.07 kcal/mol and the stoichiometry N came to 0.5.

Consider “Pex5_(eTPR) in presence of excess Pex14NTD (from UniProt Q4DPQ9 316-668) (complex)”, for which, in [14], the Kd was determined as 80 nM.

In assay [15], “Pex5_(eTPR)(Δ470–480) (from UniProt Q4DPQ9 316-668) (domain or fragment)” had a Kd of 102 nM, a dH of -6.88 kcal/mol and a stoichiometry N of 0.452. In [16], this molecule showed a Kd of 420 nM, a dH of -6.31 kcal/mol and a stoichiometry N of 1.04.

Turning to “Pex5eTPR, truncated Pex5 with the extended TPR domain and a single Wxxx(F/Y) motif, wild type (from UniProt Q4DPQ9 314-666) (domain or fragment)”, in [17], the Ka is 5.79e+06 M⁻¹ and 8.29e+06 M⁻¹; the Kd is 173 nM and 121 nM; the stoichiometry N is 0.722 and 0.503. In assay [18], the Ka is 2.03e+06 M⁻¹ and 2.77e+06 M⁻¹ and 2.21e+06 M⁻¹; the Kd is 492 nM and 361 nM and 453 nM; the stoichiometry N is 0.309 and 0.622 and 0.265.

In assay [4], Pex14NTD(A48F) (domain or fragment) displayed a Kd of 59 nM and a stoichiometry N of 0.68. In assay [9], the Kd came out at 121 nM, the dH was -18.3 kcal/mol and the stoichiometry N was 0.608. Moreover, the Ka in assay [3] came out at 8.24e+06 M⁻¹.

In assay [4], Pex14NTD(Q52A) (domain or fragment) gave a dissociation constant (Kd) of 17 nM and a stoichiometry N of 0.647. Also, in assay [9], the dissociation constant Kd was determined as 54 nM, the dH was -15.7 kcal/mol and the stoichiometry N was 0.664. Besides, the Ka in [3] was found to be 1.86e+07 M⁻¹.

B1: Pex5_(eTPR) (residues 314–666), truncated Pex5 containing an extended TPR domain with a single Wxxx(F/Y) motif, Q4DPQ9 316-668 (domain or fragment)
chain: MDDGALDNAADVEEWVREYAEAQEQLQRVQNETNYPFEPNNPYMYHDKPMEEGIAMLQLANMAEAALAFEAVCQKEPENVEAWRRLGTTQAENEKDCLAIIALNHARMLDPKDIAVHAALAVSHTNEHNVGAALQSLRSWLLSQPQYEHLGLVDLREVAADEGLDEVPEENYFFAAPSEYRDCCTLLYAAVEMNPNDPQLHASLGVLHNLSHRFDEAAKNFRRAVELRPDDAHMWNKLGATLANGNRPQEALEAYNRALDINPGYVRVMYNMAVSYSNMAQYPLAAKHITRAIALQAGGTNPQGEGSRIATRGLWDLLRMTLNLMDRSDLVEASWQQDLTPFLREFGLEEMAV
modifications: not checked
In assay [19], B1 registered a dH of -6.33 kcal/mol and a stoichiometry N of 0.398. In addition, in [20], the dissociation constant (Kd) worked out at 254 nM. Also, in assay [21], the dH was -5.02 kcal/mol and the stoichiometry N is 0.933.

B2: Pex5_(eTPR)(R625A, D629A) (domain or fragment)
chain: B1 chain with V16A, R156Q, M234T, R312A, D316A, R344K, E350D
notes: source: E. coli BL21 (DE3), purified as wild type (Ni-NTA, SEC)
In the case of B2, in assay [22], the dH was -5.38 ± 0.12 kcal/mol and the “stoichiometry N” value was determined as 0.5 ± 0.006.

B3: Pex5_(eTPR)(P490R) (domain or fragment)
chain: B1 chain with V16A, R156Q, P177R, M234T, R344K, E350D
notes: as for B2
As to B3, in assay [22], the dH was -6.43 ± 0.215 kcal/mol and the “stoichiometry N” value came out at 0.292 ± 0.006.
